Experimental data from PMC3059353.

Substrate: Nc1ncnc2nc[nH]c12
Assay: steady-state kinetics of purified enzyme, GDH-coupled ammonia assay
Format: biochemical, Agrobacterium fabrum
Settings: binuclear Mn2+ active site at binuclear metal center (adenine pose only modeled)

B1: adenine deaminase Atu4426 (Agrobacterium fabrum str. C58) (protein)
chain: MTAQIRLAEPADLNDDTLRARAVAAARGDQRFDVLITGGTLVDVVTGELRPADIGIVGALIASVHEPASRRDAAQVIDAGGAYVSPGLIDTHMHIESSMITPAAYAAAVVARGVTTIVWDPHEFGNVHGVDGVRWAAKAIENLPLRAILLAPSCVPSAPGLERGGADFDAAILADLLSWPEIGGIAEIMNMRGVIERDPRMSGIVQAGLAAEKLVCGHARGLKNADLNAFMAAGVSSDHELVSGEDLMAKLRAGLTIELRGSHDHLLPEFVAALNTLGHLPQTVTLCTDDVFPDDLLQGGGLDDVVRRLVRYGLKPEWALRAATLNAAQRLGRSDLGLIAAGRRADIVVFEDLNGFSARHVLASGRAVAEGGRMLVDIPTCDTTVLKGSMKLPLRMANDFLVKSQGAKVRLATIDRPRFTQWGETEADVKDGFVVPPEGATMISVTHRHGMAEPTTKTGFLTGWGRWNGAFATTVSHDSHNLTVFGGNAGDMALAANAVIGTGGGMAVASEGKVTAILPLPLSGLVSDAPLEEVARAFEDLREAVGKVVEWQPPYLVFKACFGATLACNIGPHQTDMGIADVLTGKVMESPVIEVLG
Work on B1 yielded a Km of 320 ± 40 µM.
